Data taken from PMC9197527, “An anti-ACVR1 antibody exacerbates heterotopic ossification by fibro-adipogenic progenitors in fibrodysplasia ossificans progressiva mice” (The Journal of Clinical Investigation, 2022).

Legend:
[1] = molecular target: T1, ACVR1 (as used for surface plasmon resonance) (Homo sapiens (assumed), UniProt Q04771); experiment: SPR; BIAcore; which partner was immobilised, and the conditions, are not told in the text shown; details: both partners purified
T1 construct: ACVR1 (ALK2), BMP type I receptor; For other steps (serum ELISA, panning, BLI) the methods name recombinant human ACVR1 extracellular domain proteins (Creative Biomart ACVR1-01H; Sino Biologicals 10227-H03B; R&D Systems 637-AR), but none is named for the BIAcore measurement; It was probably an extracellular domain construct; also called ALK2; BMP type I receptor ACVR1
T1 sequence (Q04771 21-509): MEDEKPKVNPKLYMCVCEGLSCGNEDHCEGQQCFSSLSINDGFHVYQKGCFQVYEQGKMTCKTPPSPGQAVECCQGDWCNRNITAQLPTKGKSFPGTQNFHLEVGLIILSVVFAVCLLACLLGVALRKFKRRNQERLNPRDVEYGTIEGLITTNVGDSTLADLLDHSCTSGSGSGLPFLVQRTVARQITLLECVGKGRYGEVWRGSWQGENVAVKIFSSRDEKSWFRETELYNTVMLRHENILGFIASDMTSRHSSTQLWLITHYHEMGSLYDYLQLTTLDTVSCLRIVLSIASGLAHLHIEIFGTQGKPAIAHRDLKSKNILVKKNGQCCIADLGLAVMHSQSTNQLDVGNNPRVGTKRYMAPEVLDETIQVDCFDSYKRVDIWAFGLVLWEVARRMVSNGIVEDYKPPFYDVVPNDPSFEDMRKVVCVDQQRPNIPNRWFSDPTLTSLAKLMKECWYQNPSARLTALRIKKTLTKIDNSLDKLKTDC

ALK3 on C2C12 cells = molecular target: T2, ALK3 on C2C12 cells (Mus musculus (C2C12, endogenous), UniProt P36895); experiment: flow cytometry on cells; JAB0505 on parental (wild-type ACVR1-expressing) and ACVR1-KO C2C12 cells; details: one partner purified
T2 construct: ALK3 (BMPR1A), mouse, endogenous on the surface of C2C12 cells; also called Bmpr1a; source: endogenous, on mouse C2C12 myoblast cells (ACVR1-KO clone)
T2 sequence (P36895 24-532): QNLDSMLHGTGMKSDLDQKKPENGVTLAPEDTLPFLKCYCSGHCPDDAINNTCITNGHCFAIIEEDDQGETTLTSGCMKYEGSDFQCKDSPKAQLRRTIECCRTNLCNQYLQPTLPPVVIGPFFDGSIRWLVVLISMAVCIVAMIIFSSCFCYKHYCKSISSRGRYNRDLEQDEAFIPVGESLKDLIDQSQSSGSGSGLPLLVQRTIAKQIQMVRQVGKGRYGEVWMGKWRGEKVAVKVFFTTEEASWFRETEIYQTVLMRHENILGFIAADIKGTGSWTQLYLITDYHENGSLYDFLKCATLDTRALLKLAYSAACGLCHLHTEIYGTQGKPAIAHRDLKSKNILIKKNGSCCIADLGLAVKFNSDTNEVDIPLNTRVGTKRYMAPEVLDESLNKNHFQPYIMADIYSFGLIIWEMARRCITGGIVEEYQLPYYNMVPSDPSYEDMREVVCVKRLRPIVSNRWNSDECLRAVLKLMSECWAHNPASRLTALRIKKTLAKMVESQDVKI

[2] = molecular target: T3, ACVR1 on parental C2C12 cells (Mus musculus (C2C12, endogenous), UniProt P37172); experiment: as above; details: one partner purified
T3 construct: ACVR1 (ALK2), mouse, endogenous on the surface of C2C12 cells; also called ALK2; wild-type ACVR1; source: endogenous, on mouse C2C12 myoblast cells
T3 sequence (P37172 21-509): as the sequence (Q04771 21-509) above, with M1V, P10Q, L121I, D162E, P310S counted along it

B1: anti-ACVR1 monoclonal antibody JAB0505 (antibody, V domains shown)
VH: EVQLQQSGAELVRPGASVRLSCTASGFNIKDSLMHWVKQRPEQGLEWIGWIDPEDGETRYAPNFQDKATITAVTSSNTAYLQLSSLTSEDSAIYYCARYTSRYYTMDYWGQGTSVTVSS
VL: DIQMTQSPASQSASLGESVTFTCLASQTIGTWLAWYQQKPGKSPQLLIYAATSLADGVPSRFSGSGSGTKFSFKISSLQAEDFASYYCQQLYWTPWTFGGGTKLEIK
notes: also called anti-ACVR1 mAb; mAb JAB0505; source: HEK293 cells, purified by protein A chromatography; copies: 2 + 2
Kd [1]: ~25 nM | binding result (ALK3 on C2C12 cells): no binding | binding result [2]: binds
